The results in this text go back to IntAct's records for PubMed 16431923.

This experiment has as its target ccnd1_human CCND1 (UniProt P24385).

Sequence of ccnd1_human CCND1 (P24385 whole entry): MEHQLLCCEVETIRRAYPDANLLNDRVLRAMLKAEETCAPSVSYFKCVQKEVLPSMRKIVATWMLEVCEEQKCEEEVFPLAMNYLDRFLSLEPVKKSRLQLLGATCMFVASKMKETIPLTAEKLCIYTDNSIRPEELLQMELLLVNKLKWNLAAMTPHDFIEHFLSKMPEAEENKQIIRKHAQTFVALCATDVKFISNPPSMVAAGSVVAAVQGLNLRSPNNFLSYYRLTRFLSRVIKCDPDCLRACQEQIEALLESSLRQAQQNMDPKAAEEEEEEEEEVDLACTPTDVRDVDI

Regarding “Nucleoprotein (Human SARS coronavirus), P59595 S207A;P208A;A209L;R210G”, the “effect of a mutation on the interaction” value is “decreasing interaction strength”.
